{"source": "paper PMC11889887", "about": "(2025)", "binders": {"B1": {"name": "peptide 5a (chromogranin A-derived peptide) (peptide)", "chain": "CFETLRGDLRILSILR[Pra]QNL[Lys(N3)]KELQD-NH2", "modifications": "triazole 17-21"}}, "key": {"[1]": {"target": "T1, biotinylated recombinant human αvβ8 integrin (human, UniProt P06756 31-1048; P26012 43-684, biotin (chain and site not stated) | biotin (chain and site not stated))", "T1 chain 1": "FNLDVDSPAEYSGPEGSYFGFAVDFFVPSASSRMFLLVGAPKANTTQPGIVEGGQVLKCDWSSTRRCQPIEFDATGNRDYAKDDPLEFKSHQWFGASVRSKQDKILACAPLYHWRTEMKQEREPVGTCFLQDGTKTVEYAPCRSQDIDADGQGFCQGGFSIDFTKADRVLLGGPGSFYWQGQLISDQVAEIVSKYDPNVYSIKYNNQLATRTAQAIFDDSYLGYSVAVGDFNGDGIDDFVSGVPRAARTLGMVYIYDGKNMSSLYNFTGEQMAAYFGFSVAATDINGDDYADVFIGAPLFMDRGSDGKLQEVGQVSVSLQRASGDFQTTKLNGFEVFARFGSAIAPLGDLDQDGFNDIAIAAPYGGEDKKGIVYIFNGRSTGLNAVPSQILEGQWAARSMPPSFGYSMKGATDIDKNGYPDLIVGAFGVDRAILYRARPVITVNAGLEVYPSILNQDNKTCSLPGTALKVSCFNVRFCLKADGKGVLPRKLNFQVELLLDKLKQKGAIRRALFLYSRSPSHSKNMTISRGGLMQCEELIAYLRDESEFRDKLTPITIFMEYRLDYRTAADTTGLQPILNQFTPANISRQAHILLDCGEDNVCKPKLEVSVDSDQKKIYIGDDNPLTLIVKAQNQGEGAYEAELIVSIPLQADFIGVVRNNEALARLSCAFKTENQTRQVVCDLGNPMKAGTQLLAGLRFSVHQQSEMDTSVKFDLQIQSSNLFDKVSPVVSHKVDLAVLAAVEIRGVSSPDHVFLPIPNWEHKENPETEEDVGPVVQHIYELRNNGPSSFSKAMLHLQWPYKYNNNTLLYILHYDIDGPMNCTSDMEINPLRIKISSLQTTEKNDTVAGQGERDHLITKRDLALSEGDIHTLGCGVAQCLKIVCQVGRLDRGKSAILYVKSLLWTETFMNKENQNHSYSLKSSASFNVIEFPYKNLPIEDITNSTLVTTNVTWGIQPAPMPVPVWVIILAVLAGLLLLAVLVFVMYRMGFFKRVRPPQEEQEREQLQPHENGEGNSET", "T1 chain 2": "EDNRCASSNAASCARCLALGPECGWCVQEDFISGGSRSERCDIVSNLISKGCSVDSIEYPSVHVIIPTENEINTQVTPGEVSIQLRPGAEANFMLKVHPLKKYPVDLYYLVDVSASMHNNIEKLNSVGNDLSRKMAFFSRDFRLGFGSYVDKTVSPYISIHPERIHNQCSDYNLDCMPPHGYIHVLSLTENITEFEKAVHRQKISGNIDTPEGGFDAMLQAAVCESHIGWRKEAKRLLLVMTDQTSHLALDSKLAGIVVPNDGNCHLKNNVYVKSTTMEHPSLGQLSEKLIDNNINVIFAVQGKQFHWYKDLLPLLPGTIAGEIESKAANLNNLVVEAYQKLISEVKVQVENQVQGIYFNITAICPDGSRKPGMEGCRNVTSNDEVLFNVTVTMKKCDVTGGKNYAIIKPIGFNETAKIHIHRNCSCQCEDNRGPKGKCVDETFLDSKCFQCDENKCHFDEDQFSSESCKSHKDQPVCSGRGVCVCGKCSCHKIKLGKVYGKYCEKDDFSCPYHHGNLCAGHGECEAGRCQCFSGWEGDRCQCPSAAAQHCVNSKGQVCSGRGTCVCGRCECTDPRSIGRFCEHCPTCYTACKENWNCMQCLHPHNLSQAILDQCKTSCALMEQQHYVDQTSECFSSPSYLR", "test": "ELISA; competition with latent TGFβ1"}, "[2]": {"target": "T2, biotinylated recombinant human αvβ6 integrin (human, UniProt P06756 31-1048; P18564 22-709, biotin (chain and site not stated) | biotin (chain and site not stated))", "T2 chain 1": "T1 chain 1", "T2 chain 2": "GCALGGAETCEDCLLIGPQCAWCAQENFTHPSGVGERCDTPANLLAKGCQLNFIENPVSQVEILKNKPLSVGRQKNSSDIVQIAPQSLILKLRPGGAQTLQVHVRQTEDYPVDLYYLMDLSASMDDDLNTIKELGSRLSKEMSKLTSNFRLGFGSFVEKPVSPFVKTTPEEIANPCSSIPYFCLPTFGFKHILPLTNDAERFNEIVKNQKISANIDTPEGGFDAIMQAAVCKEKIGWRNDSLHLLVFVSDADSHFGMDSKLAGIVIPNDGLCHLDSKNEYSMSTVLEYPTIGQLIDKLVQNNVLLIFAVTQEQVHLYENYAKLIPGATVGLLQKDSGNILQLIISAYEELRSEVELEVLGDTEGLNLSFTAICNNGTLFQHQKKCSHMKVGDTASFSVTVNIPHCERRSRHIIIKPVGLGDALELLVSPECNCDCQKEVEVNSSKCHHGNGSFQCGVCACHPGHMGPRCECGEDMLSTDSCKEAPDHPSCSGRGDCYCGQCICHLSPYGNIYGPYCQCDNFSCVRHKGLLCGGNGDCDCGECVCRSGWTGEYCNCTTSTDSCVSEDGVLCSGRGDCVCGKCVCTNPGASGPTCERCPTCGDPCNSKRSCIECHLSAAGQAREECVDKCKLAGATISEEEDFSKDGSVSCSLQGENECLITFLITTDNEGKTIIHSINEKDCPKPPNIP", "test": "ELISA; competition with latent TGFβ1"}}, "note": "Bridge positions count the residues as written; N and C are the ends. Square brackets hold non-standard residues; d marks the D form. Ends that are not written are not given here. Lys(N3) = [N-]=[N+]=NCCCC[C@H](N)C(=O)O; Pra = C#CC[C@H](N)C(=O)O"}
{"binder": "B1", "values": [{"measurement": "Ki", "setting": "[1]", "value": 2.74, "unit": "nM"}, {"measurement": "Ki", "setting": "[2]", "value": 0.139, "unit": "nM"}]}
